According to the supplement of paper PMC10065799, “High-throughput profiling of sequence recognition by tyrosine kinases and SH2 domains using bacterial peptide display” (eLife, 2023):

These sequences were tested on AncSZ (assay: phosphorylation enrichment, bacterial display (enrichment ratio); higher = better substrate or ligand; peptides without Tyr show the background).
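Also: 11-residue human phosphosite peptides and single-mutation variants displayed on the E. coli surface, counted by deep sequencing, each peptide's frequency after selection divided by its frequency in the unselected input library; frequency after pTyr selection over input frequency; kinase dosed for 20-30% of maximal phosphorylation in three min.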

| Sequence | phosphorylation enrichment |
| --- | --- |
| AFGGGYGGVLT [KRT19_Y65_YF] | 0.699 |
| GLETSYIEDNC [PAH_Y24_Q20L] | 1.04 |
| RELGEYGLQAF [ALDH2_Y497_YF] | 1.07 |
| TPIFPYLLPKS [PLD2_Y580_T577I_YF] | 0.632 |
| RLPNGYGLAYR [DLK1_Y262_S260N] | 0.706 |
| EDSEFYRAFEE [CASQ2_Y179_K180R_YF] | 1.15 |
| QADVVYVNTQL [MERTK_Y872_I871V] | 0.822 |
| PDGVEYLKNDP [GRIN3A_Y831] | 1.54 |
| FSPPFYHRNCM [HGD_Y334_R330S_YF] | 0.931 |
| KKEGPYDVVVL [PARK7_Y67] | 0.675 |
| KVKSIYFHTQG [AR_Y916_P914S] | 0.69 |
| GANFEYIIAEK [ECHS1_Y35] | 0.911 |
| AELVQYYMEHH [PTPN11_Y80] | 1.2 |
| FADGVYQALEE [DUOX2_Y70_YF] | 1.49 |
| FRSSLYSLMET [MYO5C_Y633_L634S] | 1.12 |
| FFCRWYRNRKS [EREG_Y144_YF] | 0.442 |
| VIEYSYTSADG [DHCR7_Y382_C380Y] | 1.34 |

| Sequence | phosphorylation enrichment |
| --- | --- |
| SSTAMYSAAGR [PSMB1_Y8_P11A] | 0.451 |
| LNPVVYTLRNA [OR4C12_Y285] | 1.26 |
| DLVSEYQQFQD [TUBB3_Y422_YF] | 1.52 |
| AGHEEYSAMRD [KRAS_Y64_Q61H] | 0.797 |
| IRFSDYVEVAD [PHACTR1_Y525] | 1.41 |
| SDQRRYSLIDR [CLIP2_Y972] | 0.508 |
| MSRNLYSGDFF [DDR2_Y736_YF] | 0.825 |
| RYFTTYDTNGR [CLCA1_Y665] | 0.657 |
| SQGRQYQELPR [KCNH2_Y1009_R1005Q] | 0.666 |
| LRRFIYRPPDR [OTOF_Y1231] | 0.825 |
| TEALFYTDDPA [ADPRS_Y75_T79P_YF] | 1.62 |
| CTTIHHNYMCN [TP53_Y234_Y234H] | 0.766 |
| NLVSEYQQYQD [TUBB3_Y422_D417N] | 1.37 |
| RVILRYVNPGT [LAMA3_Y791] | 1.06 |
| PQDSAYHSGIQ [FLG_Y3940_S3935P] | 0.651 |
| KLPDAYERFIL [G6PD_Y437_L440F] | 0.985 |

What follows are sequences tested against EPHB1 (UniProt P54762) in the same assay as above.
EPHB1, sequence (P54762 whole entry, looked up): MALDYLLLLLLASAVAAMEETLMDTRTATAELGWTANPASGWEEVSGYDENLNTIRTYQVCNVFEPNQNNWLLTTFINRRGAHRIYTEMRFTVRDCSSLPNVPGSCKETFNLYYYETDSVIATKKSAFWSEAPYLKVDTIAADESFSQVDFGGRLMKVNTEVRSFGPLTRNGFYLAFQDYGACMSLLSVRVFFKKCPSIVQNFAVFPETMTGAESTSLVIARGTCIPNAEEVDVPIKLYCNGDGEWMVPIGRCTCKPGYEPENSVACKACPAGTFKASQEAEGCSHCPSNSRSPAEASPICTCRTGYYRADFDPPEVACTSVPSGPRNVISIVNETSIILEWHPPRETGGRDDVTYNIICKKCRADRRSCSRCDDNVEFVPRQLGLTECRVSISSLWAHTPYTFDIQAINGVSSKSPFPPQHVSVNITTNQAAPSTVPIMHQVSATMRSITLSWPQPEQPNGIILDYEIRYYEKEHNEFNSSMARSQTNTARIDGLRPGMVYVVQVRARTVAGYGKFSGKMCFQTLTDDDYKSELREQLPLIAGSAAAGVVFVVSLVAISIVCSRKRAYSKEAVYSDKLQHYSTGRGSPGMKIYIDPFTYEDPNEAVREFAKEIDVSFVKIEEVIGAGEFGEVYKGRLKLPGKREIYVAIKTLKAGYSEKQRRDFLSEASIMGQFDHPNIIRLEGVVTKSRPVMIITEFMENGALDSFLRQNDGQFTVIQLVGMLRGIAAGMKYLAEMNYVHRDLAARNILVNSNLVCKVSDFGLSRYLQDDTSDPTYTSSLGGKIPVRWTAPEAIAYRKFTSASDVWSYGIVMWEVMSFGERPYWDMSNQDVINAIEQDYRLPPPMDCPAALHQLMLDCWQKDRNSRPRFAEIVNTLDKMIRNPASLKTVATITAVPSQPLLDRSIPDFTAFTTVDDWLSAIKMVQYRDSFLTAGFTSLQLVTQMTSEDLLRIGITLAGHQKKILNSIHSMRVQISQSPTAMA

| Sequence | phosphorylation enrichment |
| --- | --- |
| AFGGGYGGVLT [KRT19_Y65_YF] | 0.478 |
| GLETSYIEDNC [PAH_Y24_Q20L] | 0.585 |
| RELGEYGLQAF [ALDH2_Y497_YF] | 0.707 |
| TPIFPYLLPKS [PLD2_Y580_T577I_YF] | 0.467 |
| RLPNGYGLAYR [DLK1_Y262_S260N] | 0.416 |
| EDSEFYRAFEE [CASQ2_Y179_K180R_YF] | 0.582 |
| QADVVYVNTQL [MERTK_Y872_I871V] | 0.66 |
| PDGVEYLKNDP [GRIN3A_Y831] | 0.693 |
| FSPPFYHRNCM [HGD_Y334_R330S_YF] | 0.483 |
| KKEGPYDVVVL [PARK7_Y67] | 0.492 |
| KVKSIYFHTQG [AR_Y916_P914S] | 0.542 |
| GANFEYIIAEK [ECHS1_Y35] | 0.501 |
| AELVQYYMEHH [PTPN11_Y80] | 1.06 |
| FADGVYQALEE [DUOX2_Y70_YF] | 1.97 |
| FRSSLYSLMET [MYO5C_Y633_L634S] | 4.17 |
| FFCRWYRNRKS [EREG_Y144_YF] | 0.421 |
| VIEYSYTSADG [DHCR7_Y382_C380Y] | 0.699 |

| Sequence | phosphorylation enrichment |
| --- | --- |
| SSTAMYSAAGR [PSMB1_Y8_P11A] | 0.35 |
| LNPVVYTLRNA [OR4C12_Y285] | 0.761 |
| DLVSEYQQFQD [TUBB3_Y422_YF] | 0.721 |
| AGHEEYSAMRD [KRAS_Y64_Q61H] | 0.462 |
| IRFSDYVEVAD [PHACTR1_Y525] | 1.42 |
| SDQRRYSLIDR [CLIP2_Y972] | 0.327 |
| MSRNLYSGDFF [DDR2_Y736_YF] | 7.35 |
| RYFTTYDTNGR [CLCA1_Y665] | 0.672 |
| SQGRQYQELPR [KCNH2_Y1009_R1005Q] | 0.354 |
| LRRFIYRPPDR [OTOF_Y1231] | 0.529 |
| TEALFYTDDPA [ADPRS_Y75_T79P_YF] | 1.05 |
| CTTIHHNYMCN [TP53_Y234_Y234H] | 0.486 |
| NLVSEYQQYQD [TUBB3_Y422_D417N] | 0.582 |
| RVILRYVNPGT [LAMA3_Y791] | 0.838 |
| PQDSAYHSGIQ [FLG_Y3940_S3935P] | 0.652 |
| KLPDAYERFIL [G6PD_Y437_L440F] | 0.568 |
